Source: the supplement of paper PMC12764529
± gives the half width of the 95% confidence interval.

What was measured:
[1] = folding stability dG unfold from trypsin proteolysis; higher = more stable
Outline: (§1)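 How resistant each design was to proteolysis was captured as K50, inferred by Bayesian fitting of sequencing counts. Unfolding free energy was then derived relative to a sequence-predicted unfolded-state K50 and a shared folded-state K50, per protease or combined. Digestion used trypsin and chymotrypsin at 11 threefold-diluted concentrations plus a no-protease condition, on mini-proteins under 80 residues without cysteine in a PA-tagged cDNA display construct. Designs were kept only when AlphaFold2 dimer inter-PAE was above 15.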

[2] = folding stability dG unfold from chymotrypsin proteolysis; higher = more stable
Outline: as §1

[3] = folding stability dG unfold (combined trypsin and chymotrypsin); higher = more stable
Outline: as §1

Sequence	folding stability dG unfold [1] [kcal/mol]	folding stability dG unfold [2] [kcal/mol]	folding stability dG unfold [3] [kcal/mol]
SALPYEVEKTSETFLPEEGLTVTEYKITLPDGSELYRRETFDPKTGVRTVTVYDPNGKKLETRTFTVPPSAG [r14_759_JUSTAS]	2.19 ± 0.038	2.49 ± 0.048	2.4 ± 0.046
SALTLEIELEFELEDGYRVTVRARLEFDPETNELTIEVEVRIEPLPPPPPPPETVLVKDENGNWHPLEDLSA [r9_898_TrROS_Hall]	3.22 ± 0.14	3.44 ± 0.16	3.27 ± 0.15
SALVPIKGKYPVYEMRPEKDPNGNMKPEMRPVKVPIEFPFVVIDPENGKWVPADDIDPEDGRLVAPGLISAG [r14_122_TrROS]	1.14 ± 0.051	-0.25 ± 0.045	0.598 ± 0.064
SAMDFKAEKVEILKVEKLKDGTVKITVKVEVGKYVLNAEIPYGKDGKIEKIEAEIDLENNFMTYKVTVGSAG [r14_189_TrMRF]	1.58 ± 0.19	2.24 ± 0.13	1.97 ± 0.33
SAMEALEEAGFEVVEVEEVEERELPDGKRLVRLRITVRRDGKLVELEIVVPEENEEEALRAALELLREESAG [r14_726_TrROS_Hall]	4.49 ± 0.18	4.4 ± 0.099	4.44 ± 0.11
SAMEITETSLDSSTLYTFPGRRITITTTPDSYTITITLPDGTPVTLNFPPTMPLDEVKKKVIETLLASSSAG [r14_618_JUSTAS]	0.935 ± 0.05	1.24 ± 0.16	1.19 ± 0.12
SAMEITIEKDENGNIRITLKLDGAEIIEEKEVPPGEKEKTIKIKVDGKVLELTIKDGKIEIKEVSPEDLSAG [r14_403_TrROS_Hall]	2.93 ± 0.14	3.55 ± 0.1	3.44 ± 0.13
SAMEVVEERELPDGTTVVTIPDPATGDTVVLVTDPEGKITVYTYPSSTGIPTEEVFPDLSVEEAIARLASAG [r14_760_JUSTAS]	0.645 ± 0.046	0.858 ± 0.071	0.775 ± 0.058
SAMIIIRVKSKEELEEAIRRLAEELGIEDATLEQIREALLRAGAKIVSIERDPEREDYVLIVIELPPEPSAG [r14_678_TrROS_Hall]	4.01 ± 0.1	4.1 ± 0.084	4.05 ± 0.071
SAMILPKTVPKTITYPGSEEEARAVAEAEAARLKAQGNVTVDITFVKKSPEGGYTIEITITDYAPPELLSAG [r14_413_JUSTAS]	0.77 ± 0.12	0.933 ± 0.28	0.861 ± 0.23
SAMITITLPNGTPVNVEVTVTETRASPDGTLTTTDYELTFHPPDGVPRRGKGTVLSDPATGTTTITIIESAG [r14_789_JUSTAS]	1.47 ± 0.041	1.45 ± 0.028	1.48 ± 0.042
SAMITVPFTFPAEKAEEILEDPELKELLEKLEKELGAKVVKIEVSPETVPSGSKTTEYVKFTFTIEKKGSAG [r14_819_JUSTAS]	1.2 ± 0.032	1.8 ± 0.16	1.55 ± 0.16
SAMKEAKIVSIEFDEETGTVTIEIEVPPGAKLKIRFLDTGEELEVEVKPGETITITVPKEPILIEIELESAG [r14_96_TrROS_Hall]	3.43 ± 0.18	4.09 ± 0.24	3.79 ± 0.54
SAMKEGETVRIELVVVVPPGASVEELADALRALFGPDAEIRVEVEEVTVEVDGKTYRVLTVRVEIRLRKSAG [r14_633_TrROS_Hall]	3.44 ± 0.05	4.5 ± 0.059	4.18 ± 0.057
SAMKEGQRLLVVKITIYNKNGEKVEELELVVPEEDKEKALEAAKKLAEELAKKLNLEIKIEVEEVPLPPSAG [r14_146_TrROS_Hall]	3.14 ± 0.2	4.02 ± 0.078	3.86 ± 0.13
SAMKEMTAEELAKKLEEELRKLFPDVEIKVEIVEVKEDYVVIKVEITVRLKKPDGKEVEFKLELVLKVDSAG [r14_187_TrROS_Hall]	3.1 ± 0.41	3.55 ± 0.15	3.4 ± 0.32
SAMKFKITEVKIISVEKKKDGKKTIVIEMKVEKGEEKITIEFDKNGKIKKVSVEKLPDGKTVRVTIEIDSAG [r14_189_TrROS_Hall]	1.49 ± 0.28	2.95 ± 0.087	2.52 ± 0.49
SAMKIEPVPDPEHGRTYYTIKFKGAEVQIWENPGQYYISIRPPGNNKQIVIPAPPNDIDDILKELGIKPSAG [r14_4_TrROS]	1.06 ± 0.032	1.71 ± 0.16	1.4 ± 0.17

Sequence	folding stability dG unfold [1] [kcal/mol]	folding stability dG unfold [2] [kcal/mol]	folding stability dG unfold [3] [kcal/mol]
SAMKIKPVPDPVTGKTKYVIDFGDAEVVIYHFPNSYRIEVRKKPDNKTIVIEAKPNEIEEVLKELGLPASAG [r14_4_TrMRF]	1.4 ± 0.12	1.85 ± 0.12	1.86 ± 0.16
SAMKIYTLPDGSRLIVIPDPYSDSLSVLLVTRSPDGTYHVTLIRYHPNGEKETFTRTGDLETAIRELLSSAG [r14_179_TrMRF]	3.55 ± 0.077	3.588 ± 0.028	3.67 ± 0.091
SAMKKITLDVYRPPDKLLVTVSFPETGKTVTLPFTSEEALREEIVKKLGLSPEELEIVDRKEKELSPELLSA [r9_909_JUSTAS]	0.194 ± 0.054	0.623 ± 0.074	0.46 ± 0.13
SAMKKVEIEIEVVEVDGELYILIKIKAETPEEVKEAAEKLLKELGLPPEAEVEVVEKDGEVYILIRLKPSAG [r14_804_TrROS_Hall]	3.08 ± 0.082	4.53 ± 0.05	4.17 ± 0.13
SAMKLEAPVVLDGKPVEVEFDAEPFEAPDGDVYYLVPLKVTFPDGRTYTARLRLKPGGKIVSVELLSDESAG [r14_341_TrMRF]	1.93 ± 0.028	1.31 ± 0.19	1.77 ± 0.061
SAMKLPPGVEAEVLEVTVDEEVTITIKLEDETVVIVNEKTGEVTVIKPGETVTITMKPGEKLRIIVIKPSAG [r14_385_TrROS_Hall]	3.2 ± 0.28	1.65 ± 0.047	2.58 ± 0.24
SAMKLTVSSSSPEEAQAQAEALKAQLRAELAAAGHPGAEVPVEITVTAVPPPVPVDVADPTSDRWSPTPSAG [r14_475_JUSTAS]	0.804 ± 0.033	-0.694 ± 0.18	0.393 ± 0.07
SAMKNMTPEEVAKLIEEEIRKLYPNAEVKVEVLDAPEDYLVLKVHVTVIEPEEEGEIREFPFLVVIDLSSAG [r14_187_TrMRF]	3.47 ± 0.15	3.31 ± 0.062	3.33 ± 0.09
SAMKTETITVPGLKIEVTENKDGKKTIKITAATPEQAEEWLKKNPELRKLIEELEKAGYKVEITVLPPPSAG [r14_873_TrROS_Hall]	3.4 ± 0.17	2.83 ± 0.051	3.01 ± 0.049
SAMKVEPFTFKVTFKVPVLNPETGEATEEGVEAEVVVYRSDDGTLYVVAFVKFENGKTAVFPFTIDKDGSAG [r14_50_TrMRF]	3.19 ± 0.1	3.781 ± 0.029	3.59 ± 0.064
SAMLGAEELVRRIAEEIERRLGVPAGFDVPVRVYRPEDALVIDAYIVARGPDGEPLGERRITLVLRPEDSAG [r14_708_TrMRF]	1.94 ± 0.032	3.49 ± 0.051	2.93 ± 0.11
SAMLSPAEIKRPRLLEIIETIKKLGNFSVDIKRLPGDGDVKVKIELDPNKIEEAAKITGIPLSEIKKLVSAG [r14_688_JUSTAS]	0.923 ± 0.15	0.748 ± 0.1	0.673 ± 0.31
SAMLVITRPDGRPYLVRLKVDKVEPSPDGTLITVEFTLELFSPDGTPETFKGTLIFDPKTGKLVLKIDPSAG [r14_789_TrMRF]	2.83 ± 0.056	3.71 ± 0.014	3.42 ± 0.075
SAMLVVELEVDLPELKYMTPEEAEEIAEALAVEAAKELFPESDVKVKEVVVEPEPETGKLKVTVVLENESAG [r14_310_TrMRF]	2.18 ± 0.13	2.51 ± 0.048	2.46 ± 0.081
SAMNLKTFKIEVPDGKIFTIPPNYKAEIVEYDPEKGVVTIKLTAYETNPLKEVEKKEFSFKFKFLEEFPSAG [r14_927_TrMRF]	1.181 ± 0.011	1.62 ± 0.082	1.46 ± 0.086
SAMNTRTVTLTIERPPGSPETLEAVRARLAALGFTVTSESEEVLPDESLTRVTLTVEDPGVPETLLALLSAG [r14_956_JUSTAS]	1.65 ± 0.021	2.03 ± 0.057	1.91 ± 0.06
SAMPIDITVEGVERPPDSVVVHLRLDPSVPSDLAVTVKVRGADGTVLEVPAEDRTATLRVPSSDVVVDLSAG [r14_350_JUSTAS]	0.387 ± 0.11	0.912 ± 0.24	0.78 ± 0.16
